From the supplement of paper PMC10724198
± gives the standard deviation of the averaged measurements.

System: Saccharomyces cerevisiae
Assay: protein stability index of tFT-peptide fusion (C-terminal peptide) (PSI (0-1 scale)); higher = more stable (slower turnover)
Settings: genetic background: wild type; temperature: 30 C
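Further: PSI is a weighted mean of sequencing reads over stability bins, variants kept only with over 10 reads, mCherry proximal and sfGFP distal, peptide attached via GGGS linker.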

**Q.** Which protein stability index does the source give for TPPPAPRPPLPS here?
**A.** 0.719 ± 0.069

**Q.** Which protein stability index does the source give for FGGVGRGGLLWC here?
**A.** 0.7749 ± 0.0041

**Q.** How did the protein stability index turn out when PGGLVVGAGRED was run?
**A.** 0.709 ± 0.033

**Q.** How did the protein stability index turn out when GCGSGGLGGWRW was run?
**A.** 0.746 ± 0.18

**Q.** How did the protein stability index turn out when RLRGLLSPVGPQ was run?
**A.** 0.716 ± 0.047

**Q.** For FQAVSPRFLVLP, which protein stability index is on record?
**A.** 0.64 ± 0.046

**Q.** With VEEKDNNVRYVL as the sequence, how does the protein stability index read?
**A.** 0.697 ± 0.025

**Q.** With AAGCSSGQAQFG as the sequence, how does the protein stability index read?
**A.** 0.727 ± 0.09

**Q.** With RRGASWDEDAGS as the sequence, how does the protein stability index read?
**A.** 0.719 ± 0.0086

**Q.** For FGTKSLPSLLAM, which protein stability index is on record?
**A.** 0.583 ± 0.034

**Q.** With VSPTRSRPSSPA as the sequence, how does the protein stability index read?
**A.** 0.692 ± 0.055

**Q.** Which protein stability index does the source give for GLVRWRWGDRPS here?
**A.** 0.56 ± 0.066

**Q.** FLKGTTSQQDYT was tested. Which protein stability index did it give?
**A.** 0.7022 ± 0.0056

**Q.** SADGIVSQVTCL was tested. Which protein stability index did it give?
**A.** 0.693 ± 0.031

**Q.** WKVFKGLSADVS was tested. Which protein stability index did it give?
**A.** 0.669 ± 0.026

**Q.** How did the protein stability index turn out when KKIEHRVLNELK was run?
**A.** 0.6288 ± 0.00069

**Q.** For IGHVVTWCFGRV, which protein stability index is on record?
**A.** 0.6898 ± 0.0041

**Q.** Which protein stability index does the source give for IQARAVRRSAII here?
**A.** 0.627 ± 0.0012

**Q.** With LRRLSTGTLSIL as the sequence, how does the protein stability index read?
**A.** 0.724 ± 0.057

**Q.** With TLCITHARCFVK as the sequence, how does the protein stability index read?
**A.** 0.63 ± 0.0069

**Q.** KYKEEINEKIFN was tested. Which protein stability index did it give?
**A.** 0.646 ± 0.022

**Q.** How did the protein stability index turn out when GGSCTRNLLRYW was run?
**A.** 0.727 ± 0.011

**Q.** With PPSLRVVMVVGR as the sequence, how does the protein stability index read?
**A.** 0.611 ± 0.056

**Q.** With RSANIINPHIFP as the sequence, how does the protein stability index read?
**A.** 0.758 ± 0.014

**Q.** With RRRVADIYHGEK as the sequence, how does the protein stability index read?
**A.** 0.713 ± 0.086

**Q.** For FMVVKWSPCAWC, which protein stability index is on record?
**A.** 0.539 ± 0.026

**Q.** How did the protein stability index turn out when GCAVLGCLVLSA was run?
**A.** 0.655 ± 0.088

**Q.** LRCLFAWVCECG was tested. Which protein stability index did it give?
**A.** 0.635 ± 0.083

**Q.** Which protein stability index does the source give for QKKKKNNKRQKQ here?
**A.** 0.588 ± 0.023

**Q.** With SATSFLAAGPPT as the sequence, how does the protein stability index read?
**A.** 0.6957 ± 0.0063

**Q.** How did the protein stability index turn out when APARPCPLLSTS was run?
**A.** 0.612 ± 0.034

**Q.** Which protein stability index does the source give for PFSLSLPPPPLP here?
**A.** 0.73 ± 0.026

**Q.** LPRPLTIKQVAG was tested. Which protein stability index did it give?
**A.** 0.56 ± 0.021

**Q.** VHLCLPPLPLHT was tested. Which protein stability index did it give?
**A.** 0.651 ± 0.019

**Q.** How did the protein stability index turn out when SAFDVLCHVVVG was run?
**A.** 0.634 ± 0.021

**Q.** With PFPRPWRPLPTS as the sequence, how does the protein stability index read?
**A.** 0.7 ± 0.044

**Q.** With SLVTGRGFKVYR as the sequence, how does the protein stability index read?
**A.** 0.681 ± 0.05

**Q.** For PPPPPPSPPPPP, which protein stability index is on record?
**A.** 0.713 ± 0.038

**Q.** How did the protein stability index turn out when LFLAPFRLVLGV was run?
**A.** 0.518 ± 0.01

**Q.** For TRCDSSGGSAAP, which protein stability index is on record?
**A.** 0.68 ± 0.094

**Q.** KSYTGSRGQRVL was tested. Which protein stability index did it give?
**A.** 0.701 ± 0.053

**Q.** Which protein stability index does the source give for NSRASHPTNQII here?
**A.** 0.789 ± 0.054

**Q.** How did the protein stability index turn out when VDVSGIKAGRPW was run?
**A.** 0.681 ± 0.011

**Q.** Which protein stability index does the source give for WSGNYSNITRYI here?
**A.** 0.66 ± 0.019

**Q.** With IREFNLGTQIRY as the sequence, how does the protein stability index read?
**A.** 0.711 ± 0.035

**Q.** PPSVLPLPPSLP was tested. Which protein stability index did it give?
**A.** 0.732 ± 0.043

**Q.** With LPPARRHPSVYR as the sequence, how does the protein stability index read?
**A.** 0.669 ± 0.064

**Q.** Which protein stability index does the source give for FSSTSAPPRSAP here?
**A.** 0.621 ± 0.0078

**Q.** How did the protein stability index turn out when LIIGYFSSRVCL was run?
**A.** 0.61 ± 0.074

**Q.** GGGGVVAGVCGG was tested. Which protein stability index did it give?
**A.** 0.667 ± 0.098

**Q.** With SPRPSPPPPSHA as the sequence, how does the protein stability index read?
**A.** 0.636 ± 0.077

**Q.** How did the protein stability index turn out when LEGGVREMRGDG was run?
**A.** 0.641 ± 0.053

**Q.** Which protein stability index does the source give for PYRLPRSLLFFP here?
**A.** 0.6688 ± 0.0045

**Q.** GGGGVVGVVRVG was tested. Which protein stability index did it give?
**A.** 0.658 ± 0.044

**Q.** EPGGSKRSGGRL was tested. Which protein stability index did it give?
**A.** 0.686 ± 0.03

**Q.** How did the protein stability index turn out when IYRTYEAKPGHP was run?
**A.** 0.69 ± 0.12

**Q.** HGNWGSSPVVSG was tested. Which protein stability index did it give?
**A.** 0.632 ± 0.055

**Q.** How did the protein stability index turn out when CCGHEFEIYNWV was run?
**A.** 0.786 ± 0.1

**Q.** Which protein stability index does the source give for KKKKKHTQYKRK here?
**A.** 0.6997 ± 0.0026

**Q.** GWGGGCGCGRGI was tested. Which protein stability index did it give?
**A.** 0.687 ± 0.058

**Q.** KKKKKKKKKNKK was tested. Which protein stability index did it give?
**A.** 0.679 ± 0.048

**Q.** Which protein stability index does the source give for ALSDPDTVRLYA here?
**A.** 0.7107 ± 0.0032

**Q.** With TPAIPTTLMSLR as the sequence, how does the protein stability index read?
**A.** 0.67 ± 0.063

**Q.** For VLSLLPSLLPPF, which protein stability index is on record?
**A.** 0.7408 ± 0.0061

**Q.** For GGVGWWWVRGMG, which protein stability index is on record?
**A.** 0.741 ± 0.029

**Q.** With SLPLPPPVRPLL as the sequence, how does the protein stability index read?
**A.** 0.689 ± 0.047

**Q.** EQRRAGPAEVTK was tested. Which protein stability index did it give?
**A.** 0.694 ± 0.04

**Q.** With GPAAPAGNPETV as the sequence, how does the protein stability index read?
**A.** 0.6694 ± 0.0043

**Q.** How did the protein stability index turn out when GERLVGGWHIWN was run?
**A.** 0.706 ± 0.015

**Q.** With DKKATTSIGIKK as the sequence, how does the protein stability index read?
**A.** 0.642 ± 0.07

**Q.** How did the protein stability index turn out when GSGPPVGNGLIV was run?
**A.** 0.7169 ± 0.0027

**Q.** With VALFIRITKHEY as the sequence, how does the protein stability index read?
**A.** 0.549 ± 0.027

**Q.** Which protein stability index does the source give for VGPDGFWGVVLG here?
**A.** 0.719 ± 0.023

**Q.** Which protein stability index does the source give for PPPRPSPPPSRP here?
**A.** 0.684 ± 0.021

**Q.** Which protein stability index does the source give for NKKKKENTKKRK here?
**A.** 0.721 ± 0.18

**Q.** With PPPPPVLPPRPP as the sequence, how does the protein stability index read?
**A.** 0.713 ± 0.075

**Q.** For RQLGELASARWL, which protein stability index is on record?
**A.** 0.709 ± 0.025

**Q.** For VFPIISYPHTKS, which protein stability index is on record?
**A.** 0.6779 ± 0.0064

**Q.** ATGFSLLDFSMP was tested. Which protein stability index did it give?
**A.** 0.679 ± 0.069

**Q.** RVGVEYGETGGG was tested. Which protein stability index did it give?
**A.** 0.732 ± 0.29

**Q.** Which protein stability index does the source give for TTVRTVSLIDRI here?
**A.** 0.689 ± 0.059
